Patent US7641891B2, “Chimeric, human and humanized anti-CSAp monoclonal antibodies” (Immunomedics, Inc., priority 1998, dated 2010)
Values belong to the molecule of their own block, whether it stands above or below them.

Columns and labels:
CSAp antigen [1] = test: Competitive Binding Assay against HRP-conjugated Mu-9; design: species or system human; conditions: for Competition with the binding of HRP-conjugated Mu-9 to the CSAp antigen: antigen-coated wells, competing antibody 0-50 μg/ml; for Binding affinity to CSAp antigen compared with murine Mu-9: see Example 8-9
Method: Murine Mu-9 IgG was conjugated with horseradish peroxidase (HRP) (Sigma). The peroxidase-conjugated Mu-9 was first tested for binding on microwells coated with CSAp antigen, and the optimum concentration was determined to be 0.2 μg/ml. Peroxidase-conjugated Mu-9 was mixed with various concentrations of either murine or chimeric Mu-9 (0-50 μg/ml) before addition to the antigen-coated wells. Binding of the peroxidase-conjugated Mu-9 to the antigen in the presence of the competing antibodies was measured at 490 nm after the addition of the substrate as described earlier.
The binding affinity of hMu-9 was compared in a competitive binding assay as described in Example 6.

CSAp antigen [2] = test: Mu-9 Direct Binding Assay (ELISA); design: species or system human; conditions: wells coated with GW-39 tumor extract fraction, murine Mu-9 as standard
Method: Chimeric antibody supernatant (100 μl) or purified antibody (0-1 μg/ml) was added and incubated at room temperature for 1 hour. Unbound proteins were removed by washing six times with wash buffer (PBS containing 0.05% Tween 20). Purified murine Mu-9 protein was used as the standard. The bound antibodies were allowed to react with peroxidase-conjugated goat anti-human IgG, Fc fragment-specific (Jackson ImmunoResearch, West Grove Pa.) and peroxidase conjugated goat anti-mouse IgG, Fc fragment-specific antibodies (Jackson ImmunoResearch). […] The color was developed in the dark for 1 hour, the reaction was stopped with 50 μl of 4NH2SO4, and the absorbance at 490 nm was measured in a Dynatech plate reader (Dynatech Labs, Sussex, UK).
The methods for expression and binding activity assays for hMu9 were same as described for cMu9. Approximately 10 and 30 μg of linearized hMu9VkpKh and hMu9VHpG1g were co-transfected into SP2/0 cells by electroporation. Transfected cells were grown in 96-well cell culture plates in complete medium for 2 days and then selected by the addition of hygromycin at a final concentration of 500 U/ml. Typically, the colonies began to emerge 2-3 weeks after electroporation and were assayed for antibody secretion by enzyme-linked immunosorbent assay (ELISA). […] The purified antibodies (5 μg) were analyzed by SDS-PAGE on a 4-20% gradient gel under reducing conditions.

- Competition with the binding of HRP-conjugated Mu-9 to the CSAp antigen (CSAp antigen [1]): competed equally well
- Direct binding to CSAp antigen (CSAp antigen [2]; listed as cMu-9): bound avidly to the CSAp antigen
B1: cMu-9-2: chimeric Mu-9 constructed from the VH and Vk2 and expressed in Sp2/0 cells (antibody, V domains shown)
VH: QVQLQESGPELVKPGASVKMSCRASGYTFTEYVITWVKQRTGQGLEWIGEIYPGSGSTSYNEKFKGKATLTADKSSNTAYMHLSSLTSEDSAVYFCTREDLGGQGTLVTVSS
VL: DILQTQTPLSLPVSLGDQASISCRSSQSIVHSNGNTYLEWYLQKPGQSPKLLIYKVSNRFSGVPDRFSGTGSGTDFTVRISRVEAEDLGLYYCFQGSRVPYTFGGGTKLEIKR
modifications: human constant regions
notes: chimeric Mu-9 constructed from the VH and Vk2 and expressed in Sp2/0 cells
- Binding affinity to CSAp antigen compared with murine Mu-9 (CSAp antigen [1]): comparable binding affinity to CSAp antigen as that of murine Mu-9
- Binding affinity to CSAp antigen compared with murine Mu-9 (CSAp antigen [1]; listed as cMu-9): comparable to that of its murine counterpart
- Direct binding to CSAp antigen (CSAp antigen [2]): virtually superimposable on that of the murine Mu-9

- Competition with the binding of HRP-conjugated Mu-9 to the CSAp antigen (CSAp antigen [1]): competed equally well
B2: murine Mu-9: murine monoclonal antibody of the IgG1 subtype, directed against the colon-specific antigen-p mucin (CSAp) (antibody, listed as Murine sp., V domains shown)
VH: VQLQESGPELVKPGASVKMSCRASGYTFTEYVITWVKQRTGQGLEWIGEIYPGSGSTSYNEKFKGKATLTADKSSNTAYMHLSSLTSEDSAVYFCTREDLGGQGTLVTVSS
VL: AVLMTQTPLSLPVSLGDQASISCRSSQSIVHSNGNTYLEWYLQKPGQSPKLLIYKVSNRFSGVPDRFSGTGSGTDFTVRISRVEAEDLGLYYCFQGSRVPYTFGGGTKLEIK
modifications: murine IgG1 constant regions
